Data published in patent US20210388081A1 (Memorial Sloan Kettering, published 2021).
Changes are numbered by the printed parent chain.

T1: FcRL3, overexpressed on 3T3 cells (UniProt Q96P31 18-734, limits assumed)
T1 construct: whole, on cells
T1 sequence (looked up): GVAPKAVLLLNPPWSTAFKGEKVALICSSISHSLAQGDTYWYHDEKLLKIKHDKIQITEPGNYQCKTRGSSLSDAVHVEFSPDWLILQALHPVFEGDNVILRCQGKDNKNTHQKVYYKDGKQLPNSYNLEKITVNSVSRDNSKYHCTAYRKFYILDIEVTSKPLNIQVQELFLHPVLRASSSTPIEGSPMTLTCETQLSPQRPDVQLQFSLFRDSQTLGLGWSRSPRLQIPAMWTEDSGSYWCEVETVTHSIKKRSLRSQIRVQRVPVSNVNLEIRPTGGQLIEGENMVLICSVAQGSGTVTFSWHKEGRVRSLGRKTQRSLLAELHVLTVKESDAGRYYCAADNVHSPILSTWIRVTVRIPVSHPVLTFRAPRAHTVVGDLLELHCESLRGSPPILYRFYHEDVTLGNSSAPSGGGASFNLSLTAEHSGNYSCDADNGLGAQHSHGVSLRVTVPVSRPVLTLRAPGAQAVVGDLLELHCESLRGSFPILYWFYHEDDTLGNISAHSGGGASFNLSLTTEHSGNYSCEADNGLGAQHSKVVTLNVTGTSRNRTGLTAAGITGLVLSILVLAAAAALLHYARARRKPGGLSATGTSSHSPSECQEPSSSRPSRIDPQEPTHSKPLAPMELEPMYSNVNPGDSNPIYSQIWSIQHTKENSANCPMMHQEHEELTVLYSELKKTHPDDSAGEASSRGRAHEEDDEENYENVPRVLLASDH

T2: FcRL6, overexpressed on 3T3 cells (UniProt Q6DN72 20-434, limits assumed)
T2 construct: whole, on cells
T2 sequence (looked up): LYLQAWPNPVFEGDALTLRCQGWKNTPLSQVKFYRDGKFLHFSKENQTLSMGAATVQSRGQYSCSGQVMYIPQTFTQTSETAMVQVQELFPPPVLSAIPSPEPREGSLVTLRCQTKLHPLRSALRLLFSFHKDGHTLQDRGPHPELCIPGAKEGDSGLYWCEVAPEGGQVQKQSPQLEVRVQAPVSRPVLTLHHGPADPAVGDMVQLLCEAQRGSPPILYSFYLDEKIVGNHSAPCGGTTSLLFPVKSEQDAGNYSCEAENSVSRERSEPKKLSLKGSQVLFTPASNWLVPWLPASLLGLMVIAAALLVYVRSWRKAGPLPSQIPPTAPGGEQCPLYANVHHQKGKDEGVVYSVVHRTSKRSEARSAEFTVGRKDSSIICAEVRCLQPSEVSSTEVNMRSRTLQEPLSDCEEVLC

B1: ET200-021 (scFv)
scFv: QSVLTQPPSVSAAPGQKVTISCSGSNSNIGNNYVSWYQQLPGTAPKLLIYDNNKRPSGIPDRFSGSRSGTSATLGITGLQTGDEADYYCGTWNTTVTPGYVFGTGTKVTVLGSRGGGGSGGGGSGGGGSLEMAEVQLVQSGAEVKKPGASVKVSCKASGYTFTSYGISWVRQAPGQGLEWMGWISAYNGNTNYAQKLQGRVTMTTDTSTSTAYMELRSLRSDDTAMYYCARSVYDLDTWGQGTLVTVSSTSGQAGQHHHHHHGAYPYDVPDYAS
notes: screened as phage clone; entry is VL-linker-VH-His tag-HA tag
B2: ET200-015 (scFv)
scFv: QSVVTQPPSVSVAPGKTARITCGGNNIGSKSVHWYQQKPGQAPVLVIYYDSDRPSGIPERFSGSNSGNTATLTISRVEAGDEADYYCQVWDSSSDVVFGGGTKLTVLGSRGGGGSGGGGSGGGGSLEMAEVQLVQSGAEVKKPGASVKVSCKASGYTFTSYGISWVRQAPGQGLEWMGWISAYNGNTNYAQKLQGRVTMTTDTSTSTAYMELRSLRSDDTAVYYCARWGGFGAVDHWGQGTLVTVSSTSGQAGQHHHHHHGAYPYDVPDYAS
notes: as for B1
B3: ET200-016 (scFv)
scFv: SSELTQDPAVSVALGQTVKITCQGDSLTDYHATWYQQKPGQAPVAVIYATNNRPTGIPDRFSGSSSGNTASLTITGAQAEDEADYYCNSRDSGTDEVLFGGGTKLTVLGSRGGGGSGGGGSGGGGSLEMAEVQLVETGGGLVKPGGSLRLSCAASGFTFSSYSMNWVRQAPGKGLEWVSSISSSSSYIYYADSVKGRFTISRDNAKNSLYLQMNSLRAEDTAVYYCARGQGYDYWGQGTLVTVSSTSGQAGQHHHHHHGAYPYDVPDYAS
notes: as for B1
B4: ET200-023 (scFv)
scFv: LPVLTQPPSVSVAPGKTARITCGGNNIGSKSVHWYQQKPGQAPVLVVYADSDRPSGIPERFSGSNSGNTATLTISRVEAGDEADYYCQVWDSSSYHNYVFGTGTKVTVLGSRGGGGSGGGGSGGGGSLEMAEVQLVQSGAEVKKPGASVKVSCKASGYTFTSYGISWVRQAPGQGLEWMGWISAYNGNTNYAQKLQGRVTMTTDTSTSTAYMELSSLRSEDTAMYYCARYWGFGVSDRWGQGTLVTVSSTSGQAGQHHHHHHGAYPYDVPDYAS
notes: as for B1
B5: ET200-017 (scFv)
scFv: SYVLTQPPSVSVAPGKTARITCGGNNIGSKSVHWYQQKPGQAPVLVVYDDSDRPSGIPERFSGSNSGNTATLSISRVEAGDEADYYCQVWDSSSDHTVFGTGTKVTVLGSRGGGGSGGGGSGGGGSLEMAQVQLQQWGAGLLKPSETLSLTCAVYGGSFSGYYWSWIRQPPGKGLEWIGEINHSGSTNYNPSLKSRVTISVDTSKNQFSLKLSSVTAADTAVYYCARYYPGMDMWGQGTLVTVSSTSGQAGQHHHHHHGAYPYDVPDYAS
notes: as for B1
B6: ET200-013 (scFv)
scFv: QSVVTQPPSVSGAPGQRVTISCTGSTSNIGAGYDVHWYQQLPGTAPKLLIYTNNFRPSGVPDRFSASKSGTSASLAITGLQAEDEADYYCGTWDSSLSAVVFGGGTKLTVLGSRGGGGSGGGGSGGGGSLEMAEVQLVESGTEVKKPGASVKVSCKASGYMFTSYGLNWVRQAPGQGLEWMGWISANNGKTNYAKKFQDRVTMTRDTSTSTGYMELRSLRSDDTAVYYCARHIGGSYFDRWGQGTLVTVSSTSGQAGQHHHHHHGAYPYDVPDYAS
notes: as for B1
B7: ET200-022 (scFv)
scFv: QSVVTQPPSVSAAPGQKVTISCSGSSSNIGNNYVSWYQQLPGTAPKLLIYDNNKRPSGIPDRFSGSKSGTSATLGITGLQTGDEADYYCGTWDSSLGAPYVFGTGTKVTVLGSRGGGGSGGGGSGGGGSLEMAEVQLVQSWGGSEQPGRSLRLSCAASGFTFDDYAMHWVRQAPGKGLEWVSGISWNSGSIGYADSVKGRFTISRDNAKNSLYLQMNSLRAEDTAMYYCARYRQVGSAYDSWGQGTLVTVSSTSGQAGQHHHHHHGAYPYDVPDYAS
notes: as for B1
B8: ET200-012 (scFv)
scFv: QSVLTQPPSVSAAAGQKVTISCSGSDSNIGNNYVSWYQHLPGTAPKLLIYDVKNRPSGIPDRFSGSKSGSSATLGIAGLQPGDEADYYCGTWDSRLDAYVFGTGTKVTVLGSRGGGGSGGGGSGGGGSLEMAQMQLVQSGAEVKKPGASVKVSCKTSGFPFNIFGITWVRQAPGQGLEWMGWISGYNGNTDYPQKFQGRVTMSTDTSTSTAYMELRNLKSDDTAVYYCARGAYGGMDTWGQGTLVTVSSTSGQAGQHHHHHHGAYPYDVPDYAS
notes: as for B1
B9: ET200-011 (scFv)
scFv: QSVVTQPPSVSAAPGQRVTISCSGSSSNISIYDVSWYQQLPGTAPKLLIYGNNKRPSGIADRFSGSTSGTSATLGITGLQTGDEADYYCGTWDDSLSGGVFGGGTKLTVLGSRGGGGSGGGGSGGGGSLEMAQMQLVQSGAEVKKPGSSVKVSCEASGGTLSSYAINWVRQAPGQGLEWMGGIIPMFGTAHYAQKFQGRVTITADESTKTAYMELSSLRSEDTAVYYCARGVHYASFDHWGQGTLVTVSSTSGQAGQHHHHHHGAYPYDVPDYAS
notes: as for B1
B10: ET200-018 (scFv)
scFv: QAVLTQPPSTSGTPGQRVTISCSGSSSNIGRNGVNWYQQLPGAAPKVLIYNDNQRPSGVPDRVSGSQSGSSGTLAIDGLRSEDEADYYCAAWDDSLHGVVFGGGTKLTVLGSRGGGGSGGGGSGGGGSLEMAQVQLVQSGAEVKKPGASVKVSCKVSGYTLNELSMHWVRQAPGKGLEWMGGFDPEDGETIYAQKFQGRVTMTEDTSTDTAYMELSSLRSEDTAVYYCARGGYGDSWGQGTLVTVSSTSGQAGQHHHHHHGAYPYDVPDYAS
notes: as for B1
B11: ET200-014 (scFv)
scFv: SYVLTQPPSVSVAPGKTARITCGGNNIGSKSVHWYQQKPGQAPVLVIYYDSDRPSGIPERFSGSNSGNTATLTISRVEAGDEADYYCQVWDSSSDHYVFGTGTKVTVLGSRGGGGSGGGGSGGGGSLEMAEVQLVETGGGLVQPGGSLRLSCAASGFTFSSYAMSWVRQAPGKGLEWVSAISGSDGSTYYADSVKGRFTISRDNSKNTLYLQMNSLRDEDTAVYYCARSHEANLVGDWWGQGTLVTVSSTSGQAGQHHHHHHGAYPYDVPDYAS
notes: as for B1
B12: ET200-020 (scFv)
scFv: QSVVTQPPSVSAAPGQKVTISCSGSTSNIGNNDVSWYQQLPGTAPKLLIYDNNKRPSGIPDRFSGSKSGTSATLGITGLQTGDEADYYCGTWDSSVSASWVFGRGTKLTVLGSRGGGGSGGGGSGGGGSLEMAQVQLVQSGAEVKKPGASVKVSCKASGYTFTSYGISWVRQAPGQGLEWMGWISAYNGNTNYPQKLQGRVTMTTDPSTSTAYMELRSLRSDDTAVYYCARSMTSFDYWGQGTLVTVSSTSGQAGQHHHHHHGAYPYDVPDYAS
notes: as for B1
B13: ET200-039 (scFv)
scFv: NFMLTQPHSVSESPGKTVTISCTRSSGSIASNYVQWYQQRPGSSPTTVIYEDNQRPSGVPDRFSGSIDSSSNSASLTISGLKTEDEADYYCQSYDSSNWVFGGGTKLTVLGSRGGGGSGGGGSGGGGSLEMAEVQLVQSGAEVKKPGSSVKVSCKASGGTFSSYAISWVRQAPGQGLEWMGGIIPIFGTANYAQKFQGRVTITADESTSTAYMELSSLRSEDTAVYYCARSNYYYNDYWGQGTLVTVSSTSGQAGQHHHHHHGAYPYDVPDYAS
notes: screened as phage clone; entry is VL-linker-VH-His tag-HA tag; also called ET200-39
B14: ET200-026 (scFv)
scFv: B13 scFv with R24G, S44A, S231N, Y233H
notes: as for B1
B15: ET200-019 (scFv)
scFv: NFMLTQPHSVSESPGKTVTISCTRSSGSIASNYVQWYQQRPGSAPTTVIYEDNQRPSGVPDRFSGSIDSSSNSASLTISGLKTEDEADYYCQSYDSSNSWVFGGGTKLTVLGSRGGGGSGGGGSGGGGSLEMAQVQLVQSGAEVKRPGSSVKVSCTASGGTFSSDAISWVRQAPGQGLEWMGGIIPMFGTANYAQKFQGRVTITADESTSTAYMELSSLRSEDTAVYYCAREGYYYPSAYLGSVLNDISSVYDEWGQGTLVTVSSTSGQAGQHHHHHHGAYPYDVPDYAS
notes: as for B1

Biological target: T1, FcRL3, overexpressed on 3T3 cells
Assay: phage clone on 3T3-FcRL3 cells

Row | Binder | binding result
1 | B1 | no binding
2 | B2 | no binding
3 | B3 | no binding
4 | B4 | no binding
5 | B5 | no binding
6 | B6 | no binding
7 | B7 | no binding
8 | B8 | no binding
9 | B9 | no binding
10 | B10 | no binding
11 | B11 | no binding
12 | B12 | no binding
13 | B13 | no binding
14 | B14 | no binding
15 | B15 | no binding

Biological target: T2, FcRL6, overexpressed on 3T3 cells
Assay: phage clone on 3T3-FcRL6 cells

Row | Binder | binding result
16 | B1 | no binding
17 | B2 | no binding
18 | B3 | no binding
19 | B4 | no binding
20 | B5 | no binding
21 | B6 | no binding
22 | B7 | no binding
23 | B8 | no binding
24 | B9 | no binding
25 | B10 | no binding
26 | B11 | no binding
27 | B12 | no binding
28 | B13 | no binding
29 | B14 | no binding
30 | B15 | no binding
